Assay [1] concerns the target α-syn ΔC (α-synuclein A53T deletion mutant lacking most of the C-terminal part) (human).
The target of assay [2] is α-syn NAC (α-syn 57–102) (human) (UniProt P37840).
Assay [3] addresses α-synuclein A53T amyloid fibres (human) (UniProt P37840). Put plainly: co-sedimentation; purified fibres (3.5 μM at monomer concentration) with 0.7 μM CCT or GroEL in 25 mM Tris pH 7.4, 5 mM MgCl2, 150 mM NaCl, 10% glycerol, 30 min, room temperature; 141,000 xg, 60 min, 4 °C; pellet and supernatant on SDS-PAGE, Coomassie, ImageJ.

A value given as a limit tells only on which side of the number the result lay.

chaperonin CCT (chaperonin containing TCP-1), bovine testis, sequence (Q3MHL7 whole entry, looked up): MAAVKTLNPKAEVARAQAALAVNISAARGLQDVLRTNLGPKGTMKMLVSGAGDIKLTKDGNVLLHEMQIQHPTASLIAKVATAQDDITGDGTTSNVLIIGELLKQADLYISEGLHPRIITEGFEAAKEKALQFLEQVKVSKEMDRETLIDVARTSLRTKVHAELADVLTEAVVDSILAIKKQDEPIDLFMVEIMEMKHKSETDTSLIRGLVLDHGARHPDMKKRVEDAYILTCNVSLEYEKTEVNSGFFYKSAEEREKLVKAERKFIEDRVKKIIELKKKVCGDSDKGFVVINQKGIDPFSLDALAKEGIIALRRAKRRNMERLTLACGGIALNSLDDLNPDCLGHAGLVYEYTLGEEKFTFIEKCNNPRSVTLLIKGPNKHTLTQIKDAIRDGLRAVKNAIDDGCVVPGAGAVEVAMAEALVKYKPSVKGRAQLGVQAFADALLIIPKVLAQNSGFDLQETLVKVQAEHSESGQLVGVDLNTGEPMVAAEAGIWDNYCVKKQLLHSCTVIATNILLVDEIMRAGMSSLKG
chaperonin CCT (chaperonin containing TCP-1), bovine testis, sequence (Q3T0K2 whole entry, looked up): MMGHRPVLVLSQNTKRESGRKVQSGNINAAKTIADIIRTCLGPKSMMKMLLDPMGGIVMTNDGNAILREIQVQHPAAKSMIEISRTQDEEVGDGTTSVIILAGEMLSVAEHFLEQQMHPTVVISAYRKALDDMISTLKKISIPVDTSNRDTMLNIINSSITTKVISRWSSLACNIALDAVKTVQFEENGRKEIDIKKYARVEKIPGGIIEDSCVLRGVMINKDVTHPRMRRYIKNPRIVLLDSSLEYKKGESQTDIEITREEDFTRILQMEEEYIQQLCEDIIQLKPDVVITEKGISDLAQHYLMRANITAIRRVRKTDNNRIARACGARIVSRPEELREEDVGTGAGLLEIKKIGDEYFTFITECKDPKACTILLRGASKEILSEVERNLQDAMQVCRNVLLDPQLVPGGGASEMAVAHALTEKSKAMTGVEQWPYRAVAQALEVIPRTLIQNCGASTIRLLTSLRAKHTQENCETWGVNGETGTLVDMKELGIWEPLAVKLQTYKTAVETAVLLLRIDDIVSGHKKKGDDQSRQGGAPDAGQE
chaperonin CCT (chaperonin containing TCP-1), bovine testis, sequence (Q3ZBH0 whole entry, looked up): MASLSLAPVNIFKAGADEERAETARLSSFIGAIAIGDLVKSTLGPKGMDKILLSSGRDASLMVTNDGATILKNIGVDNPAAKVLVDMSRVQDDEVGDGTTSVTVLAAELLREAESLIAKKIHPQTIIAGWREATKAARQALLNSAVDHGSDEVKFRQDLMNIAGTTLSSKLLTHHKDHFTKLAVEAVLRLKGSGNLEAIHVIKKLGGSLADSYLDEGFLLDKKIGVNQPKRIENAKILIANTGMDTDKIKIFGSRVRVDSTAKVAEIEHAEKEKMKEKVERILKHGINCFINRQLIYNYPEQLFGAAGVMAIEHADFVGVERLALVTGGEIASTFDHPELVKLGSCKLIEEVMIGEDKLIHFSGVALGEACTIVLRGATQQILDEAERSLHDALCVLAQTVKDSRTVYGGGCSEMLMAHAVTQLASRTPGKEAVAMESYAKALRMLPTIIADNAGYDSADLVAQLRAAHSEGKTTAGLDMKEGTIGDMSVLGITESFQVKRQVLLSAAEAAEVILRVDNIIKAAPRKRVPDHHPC
chaperonin CCT (chaperonin containing TCP-1), bovine testis, sequence (Q32L40 whole entry, looked up): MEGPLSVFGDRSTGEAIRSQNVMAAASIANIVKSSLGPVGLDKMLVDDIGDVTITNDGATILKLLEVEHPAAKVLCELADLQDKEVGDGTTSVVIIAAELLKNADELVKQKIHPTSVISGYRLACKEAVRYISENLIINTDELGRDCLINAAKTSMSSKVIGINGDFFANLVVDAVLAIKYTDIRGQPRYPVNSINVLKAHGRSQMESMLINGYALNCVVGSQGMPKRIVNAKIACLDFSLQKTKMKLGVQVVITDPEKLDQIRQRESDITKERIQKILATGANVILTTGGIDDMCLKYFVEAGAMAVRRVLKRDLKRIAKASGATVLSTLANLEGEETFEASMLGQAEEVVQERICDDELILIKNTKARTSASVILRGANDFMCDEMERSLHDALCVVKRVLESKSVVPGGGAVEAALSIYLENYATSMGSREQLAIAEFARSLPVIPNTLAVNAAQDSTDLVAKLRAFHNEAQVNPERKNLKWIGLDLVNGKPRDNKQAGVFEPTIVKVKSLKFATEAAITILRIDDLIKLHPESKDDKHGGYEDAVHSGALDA

As to “chaperonin CCT (chaperonin containing TCP-1), bovine testis (from UniProt Q32L40 1-556; Q3ZBH0 1-535; Q3T0K2 1-545; Q3MHL7 1-531) (complex)”, in assay [1], the percentage of α-syn ΔC fibres (ThT fluorescence) with ADP and CCT: 33% at a molar ratio of 1:10, 58% at 1:50 was determined as 58%. Besides, the percentage of α-syn NAC fibres (ThT fluorescence) with ADP and CCT at a molar ratio of 1:50 CCT:deletion mutant in assay [2] is 38%. In turn, “chaperonin CCT (chaperonin containing TCP-1), bovine testis, Q32L40 1-556; Q3ZBH0 1-535; Q3T0K2 1-545; Q3MHL7 1-531” gave a percent of CCT cosedimented with fibres in assay [3] below 60%.

Source of the values: paper PMC5244355.
